Here are results for 15 molecules from patent US20210155689A1 (SHANGHAI PHARMAEXPLORER, published 2021).

Changes are numbered by the printed parent chain.

The target in test [1] is T1, human LAG-3 protein with hFc tag (hLAG-3-hFc protein) (human, UniProt P18627 23-450).
T1 construct: also called immunogen 1; LAG-3 extracellular domain protein; not shown: human IgG Fc fragment (hFc) of the pCpC vector
T1 sequence: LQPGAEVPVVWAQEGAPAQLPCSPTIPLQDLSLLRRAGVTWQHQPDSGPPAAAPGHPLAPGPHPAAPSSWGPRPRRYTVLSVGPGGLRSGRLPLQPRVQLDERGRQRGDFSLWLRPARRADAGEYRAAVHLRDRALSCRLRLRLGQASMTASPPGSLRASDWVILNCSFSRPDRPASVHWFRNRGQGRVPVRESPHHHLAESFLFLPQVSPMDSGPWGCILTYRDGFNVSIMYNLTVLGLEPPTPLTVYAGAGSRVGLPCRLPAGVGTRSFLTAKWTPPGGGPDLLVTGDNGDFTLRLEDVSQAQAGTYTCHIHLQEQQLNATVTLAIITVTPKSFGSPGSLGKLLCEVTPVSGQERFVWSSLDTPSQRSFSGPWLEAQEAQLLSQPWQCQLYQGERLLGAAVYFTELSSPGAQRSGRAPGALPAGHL
The experiment in a line: FACS, blocks LAG-3-hFc binding to MHC II on Raji; 2.469 nM. The procedure: (§1) The FACS reaction plate incubating the Raji cells was centrifuged to discard the supernatant. The above mixture was added as 100 μl per well to Raji cells and incubated on ice for 1-2 hours. The plate was washed twice with blocking solution (PBS, 2% fetal bovine serum) by centrifugation, added with 100 microliters of fluorescent (Alexa 488)-labeled secondary antibodies per well, and incubated on ice for 1.0 hours. The plate was washed 2-3 times by centrifugation with blocking solution (PBS, 2% fetal bovine serum), added with 100 microliters of PBS per well to suspend cells, and detected using FACS (FACS Calibur, BD) and the results were analyzed. Wherein, the IgG control was murine IgG, and the data in the table is the inhibition rate (%).
Background: Flow cytometry measures light scatter and fluorescence of single cells or particles in a stream.

Test [2] addresses T2, LAG-3-hFc protein (human LAG-3 extracellular region with hFc tag) (human, UniProt P18627 23-450).
T2 construct: also called hLAG-3-hFc; LAG-3 protein; not shown: human IgG Fc fragment (hFc) of the pCpC vector
T2 sequence: T1 sequence
The experiment in a line: FACS, inhibition of LAG-3-hFc binding to MHC II on Raji cells, antibody 0.823 nM. How it is done: as §1

Test [3] concerns the target T1, human LAG-3 protein with hFc tag …. As to the kind of experiment: ELISA, hLAG-3-hFc coated; 0.0007 nM. The procedure: (§2) The plate was sealed with plastic film and incubated overnight at 4° C. The plate was washed 2 times with the plate washing solution (PBS+0.01% Tween20) on the next day, and added with the blocking solution (PBS+0.01% Tween20+1% BSA) and blocked at room temperature for 1-2 hours. The blocking solution was poured out, and the plate was added with 50-100 μl of the antibody sample to be tested to each well, incubated at 37° C. for 1-2 hours, and washed 2-3 times with a plate washing solution (PBS+0.01% Tween20). HRP (horseradish peroxidase) labeled secondary antibody was added, and the plate was incubated at 37° C. for 1-2 hours, and washed 2-3 times with a plate washing solution (PBS+0.01% Tween20). 100 μl of TMB substrate was added to each well. After incubated at room temperature for 15-30 minutes, the plate was added with 100 μl of stop solution (1.0N HCl) to each well.
For orientation: ELISA stands for enzyme-linked immunosorbent assay.

In test [4] the target is T3, hFc tagged monkey LAG-3 protein (cLAG-3-hFc protein) (monkey; human).
T3 construct: Made in HEK293 cells; also called monkey LAG-3 extracellular domain protein; not shown: human IgG Fc fragment (hFc) of the pCpC vector
T3 chain: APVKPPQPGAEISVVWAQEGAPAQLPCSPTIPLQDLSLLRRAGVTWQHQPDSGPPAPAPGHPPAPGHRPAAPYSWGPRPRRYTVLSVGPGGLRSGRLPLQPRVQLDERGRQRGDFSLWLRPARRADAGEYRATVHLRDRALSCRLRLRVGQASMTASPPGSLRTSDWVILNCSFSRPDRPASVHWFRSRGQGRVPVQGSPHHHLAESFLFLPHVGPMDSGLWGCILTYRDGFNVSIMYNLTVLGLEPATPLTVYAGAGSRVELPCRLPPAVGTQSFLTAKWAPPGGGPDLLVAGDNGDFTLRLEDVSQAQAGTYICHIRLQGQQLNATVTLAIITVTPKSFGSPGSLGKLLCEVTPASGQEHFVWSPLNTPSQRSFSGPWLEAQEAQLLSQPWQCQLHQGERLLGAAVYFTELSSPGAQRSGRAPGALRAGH
As to the kind of experiment: ELISA, cLAG-3-hFc coated; 6.6667 nM. The procedure: as §2

Test [5] has as its target T3, hFc tagged monkey LAG-3 protein …. As to the kind of experiment: ELISA, cLAG-3-hFc coated; 0.0067 nM. The procedure: as §2

B1: 405B8H3 (mouse antibody purified from hybridoma) (antibody, V domains shown)
VH: QVQLQQSGAELVRPGASVTLSCKASGYTFTDYEMHWVKQTPVHGLEWIGATDPETGNSAYNQKFKGKAIMTADKSSSTAYMELRSLTSEDSAVYYCISTGWNDWGQGTSLTVSS
VL: DIKMTQSPSSMYASLGERVTITCKASQDINSYLSWFQQKPGKSPKTLIYRADRLLDGVPSRFSGSGSGQDYSLTISSLEYGDMGIYYCLQYDEFPYTFGGGTKLEIK
notes: also called mAb103-405B8H3; 405B81-13
Consider B1, for which the “Inhibition rate (%)” value in test [1] turned out to be 41.9%.

B2: 105F1E10 (mouse antibody purified from hybridoma) (antibody, V domains shown)
VH: EVQLQQSGPELVKPGASVKMSCRASGYTFTDFKMHWMKQSHGKSLEWIGYIAPNNGGTAYNQKFRGKATLTVNESSNTAYMELRSLTSEDSAVYYCVDWDDVDYWGQGTTLTVSS
VL: B1 VL with P40S, D52N, L55V, G81E, D92V, Y96L, G100A, I106L
notes: also called mAb009-105F1E10
With B2, in test [1], the “Inhibition rate (%)” value was 27.8%.

B3: 105F1E10 mouse-human chimeric antibody (antibody, V domains shown)
VH: B2 VH
VL: B1 VL with P40S, D52N, L55V, G81E, D92V, Y96L, G100A, I106L
notes: also called mAb009-105F1E10
For B3, the “Inhibition rate (%)” value in test [2] is -0.3%.

B4: 405B8H3 mouse-human chimeric antibody (antibody, V domains shown)
VH: B1 VH
VL: B1 VL
notes: also called mAb103-405B8H3
As for B4, the “Inhibition rate (%)” value in test [2] came out at 17.5%.

B5: 105F1E10 (LAG-3 mouse-human chimeric antibody) (antibody, V domains shown)
VH: B2 VH
VL: B1 VL with P40S, D52N, L55V, G81E, D92V, Y96L, G100A, I106L
With B5, the OD450 is 0.2 OD450 in test [3], 3.53 OD450 in test [4] and 0.26 OD450 in test [5].

B6: 405B8H3 (LAG-3 mouse-human chimeric antibody) (antibody, V domains shown)
VH: B1 VH
VL: B1 VL
notes: also called mouse-human chimeric antibody 405B8H3
Take B6: the OD450 in test [3] amounted to 0.19 OD450; in test [4], 3.55 OD450; in test [5], 0.46 OD450.

B7: 409B11E12 (mouse antibody purified from hybridoma) (antibody, V domains shown)
VH: B1 VH with P41T, G56S, N57Y, M70L, S98A
VL: B1 VL with I2L, D52N, G81E
notes: also called mAb104-409B11E12
As for B7, the “Inhibition rate (%)” value in test [1] is 39.6%.

B8: 409D4E10 (mouse antibody purified from hybridoma) (antibody, V domains shown)
VH: B1 VH with Y27N, G56D, S58T, M70L, A72T, S98T, T99S
VL: B1 VL with D52N, G81E, D92N
notes: also called mAb112-409D4E10
For the molecule B8, the “Inhibition rate (%)” value in test [1] was 44.7%.

B9: 409D4E10 mouse-human chimeric antibody (antibody, V domains shown)
VH: B1 VH with Y27N, G56D, S58T, M70L, A72T, S98T, T99S
VL: B1 VL with D52N, G81E, D92N
notes: also called mAb112-409D4E10
As for B9, in test [2], the “Inhibition rate (%)” value came to 20.9%.

B10: 409B11E12 (LAG-3 mouse-human chimeric antibody) (antibody, V domains shown)
VH: B1 VH with P41T, G56S, N57Y, M70L, S98A
VL: B1 VL with I2L, D52N, G81E
Consider B10, for which the OD450 stood at 0.2 OD450 in test [3], 3.47 OD450 in test [4] and 0.39 OD450 in test [5].

B11: 409D4E10 (LAG-3 mouse-human chimeric antibody) (antibody, V domains shown)
VH: B1 VH with Y27N, G56D, S58T, M70L, A72T, S98T, T99S
VL: B1 VL with D52N, G81E, D92N
On to B11, for which the OD450 in test [3] was determined as 0.16 OD450; in test [4] it was 3.79 OD450; in test [5], 0.64 OD450.

B12: 409B11E12 mouse-human chimeric antibody (antibody, V domains shown)
VH: B1 VH with P41T, G56S, N57Y, M70L, S98A
VL: B1 VL with I2L, D52N, G81E
notes: also called mAb104-409B11E12
On to B12, for which the “Inhibition rate (%)” value in test [2] worked out at 24.4%.

B13: 556F6B8 mouse-human chimeric antibody (antibody, V domains shown)
VH: RVQLKQSGPGLVQPSQSLSITCTVSGFSLIKYGVHWVRQSPGEGLEWLGVIWRGGITDYNAAFMSRLSITKDNSKSQVFFKMNSLQADDTAIYYCAKWDGPLAMDYWGQGTSVTVSS
VL: DIVMTQSHKFLSTSVGDRVSITCKASQDVGTTVAWYQQKPGQSPKLLIYWASTRHTGVPDRFTGSGSGTDFTLTISNVQSEDLADYFCQQYSSYPYTFGGGTKLEIK
notes: also called mAb123-556F6B8; 556F8B8
For B13, the “Inhibition rate (%)” value in test [2] came out at 29.7%.

B14: 556F6B8 (LAG-3 mouse-human chimeric antibody) (antibody, V domains shown)
VH: B13 VH
VL: B13 VL
notes: also called 556F8B8
For the molecule B14, the OD450 in test [3] came to 0.17 OD450; in test [4], 3.78 OD450; in test [5], 0.46 OD450.

B15: 556F6B8 (mouse antibody purified from hybridoma) (antibody, V domains shown)
VH: B13 VH
VL: B13 VL
notes: also called mAb123-556F6B8
Consider B15, for which the “Inhibition rate (%)” value in test [1] worked out at 48.1%.
